Experimental data from the supplement of paper PMC10598134.
± gives the standard deviation.

Assay: collision cross section of modified peptide (TIMS, N2, iRT-aligned); higher = larger / more extended gas-phase ion
How it was run: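 Collision cross section was derived from the Mason-Schamp equation. Each value averages 1–3 technical replicates of the most abundant feature per charge state, measured on a timsTOF Pro/HT in dda-PASEF mode (nitrogen, ~2.4 mbar) after a 120-min nanoflow C18 gradient at 60 °C. Synthetic peptide pools (~100 fmol/µL in 2% acetonitrile/0.1% formic acid, iRT standard spiked 1:40) were identified with MaxQuant, and 1/K0 was calibrated with three reference ions and aligned run-wise to the median iRT peptide deviation.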

[1] = charge state: 2, modification: Trimethyl (K)
[2] = charge state: 3, modification: Trimethyl (K)
[3] = charge state: 2, modification: Dimethyl (K)
[4] = charge state: 2, modification: Glutarylation
[5] = charge state: 2, modification: Hydroxyproline
[6] = charge state: 2, modification: GlyGly (K)
[7] = charge state: 3, modification: GlyGly (K)
[8] = charge state: 2, modification: Formyl
[9] = charge state: 3, modification: Formyl
[10] = charge state: 2, modification: Crotonyl
[11] = charge state: 2, modification: Propionyl
[12] = charge state: 2, modification: Succinyl
[13] = charge state: 2, modification: Citrullination (R)
[14] = charge state: 3, modification: Citrullination (R)
[15] = charge state: 2, modification: Acetyl (K)
[16] = charge state: 3, modification: Acetyl (K)
[17] = charge state: 2, modification: hydroxyisobutyryl
[18] = charge state: 3, modification: hydroxyisobutyryl
[19] = charge state: 3, modification: Methyl (R)
[20] = charge state: 2, modification: HexNAc (ST)
[21] = charge state: 2, modification: Methyl (K)
[22] = charge state: 3, modification: Methyl (K)
[23] = charge state: 3, modification: Glutarylation
[24] = charge state: 2, modification: Nitro (Y)
[25] = charge state: 3, modification: Nitro (Y)

Substance: TTGFYSGFSEVAEKR [_TTGFYSGFSEVAEK(Trimethyl (K))R_]
- collision cross section [1]: 459.26 Å²
- collision cross section [2]: 508.85 ± 1.6 Å²

Substance: SKLLFSNTAAQK [_SK(Dimethyl (K))LLFSNTAAQK_]
- collision cross section [3]: 389.15 Å²

Substance: VETTVTSLKTK [_VETTVTSLK(Gluratylation)TK_]
- collision cross section [4]: 392.12 ± 0.61 Å²

Substance: PGNSGIR [_P(Hydroxyproline)GNSGIR_]
- collision cross section [5]: 280.46 ± 3.1 Å²

Substance: SLFFGGKGAPLQR [_SLFFGGK(GlyGly (K))GAPLQR_]
- collision cross section [6]: 414.92 ± 0.35 Å²
- collision cross section [7]: 468.6 ± 1.1 Å²

Substance: LQEKVESAQSEQK [_LQEK(Formyl)VESAQSEQK_]
- collision cross section [8]: 410.52 ± 1.2 Å²
- collision cross section [9]: 496.47 ± 0.53 Å²

Substance: IHVQSSSDSSDEPAEKR [_IHVQSSSDSSDEPAEK(Crotonyl)R_]
- collision cross section [10]: 451.2 Å²
- collision cross section (charge state: 3, modification: Crotonyl): 506.27 ± 1.7 Å²

Substance: IQQELQTAKK [_IQQELQTAK(Propionyl)K_]
- collision cross section [11]: 379.28 ± 0.65 Å²

Substance: GLPGEKGER [_GLP(Hydroxyproline)GEKGER_]
- collision cross section [5]: 345.98 ± 0.8 Å²
- collision cross section (charge state: 3, modification: Hydroxyproline): 396.91 ± 2 Å²

Substance: ASAISIKLGSSK [_ASAISIK(Succinyl)LGSSK_]
- collision cross section [12]: 372.2 ± 0.24 Å²

Substance: VDVEVPDVSLEGPEGKLK [_VDVEVPDVSLEGPEGK(Butyryl)LK_]
- collision cross section (charge state: 2, modification: Butyryl): 469.33 ± 0.49 Å²

Substance: GRGAANDSTQFTVAGR [_GR(Citrullination (R))GAANDSTQFTVAGR_]
- collision cross section [13]: 411.84 ± 0.81 Å²
- collision cross section [14]: 488.59 ± 0.56 Å²

Substance: LEKTIDDLEEK [_LEK(Propionyl)TIDDLEEK_]
- collision cross section [11]: 406.15 ± 0.38 Å²

Substance: TTGFYSGFSEVAEKR [_TTGFYSGFSEVAEK(Acetyl (K))R_]
- collision cross section [15]: 434.33 ± 1.7 Å²
- collision cross section [16]: 508.12 ± 0.12 Å²

Substance: VDIDVPDVNIEGPDAKLK [_VDIDVPDVNIEGPDAK(GlyGly (K))LK_]
- collision cross section [6]: 469.92 ± 1.9 Å²
- collision cross section [7]: 504.15 ± 0.79 Å²

Substance: VDIDAPDVSIEGPDAKLK [_VDIDAPDVSIEGPDAK(GlyGly (K))LK_]
- collision cross section [6]: 470.72 ± 1.4 Å²
- collision cross section [7]: 499.87 ± 1.9 Å²

Substance: FDDTNPEKEEAK [_FDDTNPEK(Formyl)EEAK_]
- collision cross section [8]: 390.88 ± 0.55 Å²
- collision cross section [9]: 435.1 Å²

Substance: VGEFSGANKEK [_VGEFSGANK(Trimethyl (K))EK_]
- collision cross section [1]: 384.48 ± 1.7 Å²
- collision cross section [2]: 437.18 ± 7.5 Å²

Substance: INNFSADIKDSK [_INNFSADIK(Formyl)DSK_]
- collision cross section [8]: 395.4 ± 0.83 Å²

Substance: DTPTSAGPNSFNKGK [_DTPTSAGPNSFNK(hydroxyisobutyryl)GK_]
- collision cross section [17]: 416.06 ± 1.1 Å²
- collision cross section [18]: 443.44 ± 3 Å²

Substance: LTSLNVKYNNDK [_LTSLNVK(Crotonyl)YNNDK_]
- collision cross section [10]: 414.39 ± 1.1 Å²

Substance: DHLSDKESK [_DHLSDK(Acetyl (K))ESK_]
- collision cross section [15]: 350.98 ± 1.6 Å²

Substance: GGPGSTLSFVGKR [_GGPGSTLSFVGK(Formyl)R_]
- collision cross section [8]: 378.65 ± 0.9 Å²

Substance: INNFSADIKDSK [_INNFSADIK(Propionyl)DSK_]
- collision cross section [11]: 401.7 ± 0.42 Å²

Substance: LDHLAEKFR [_LDHLAEK(GlyGly (K))FR_]
- collision cross section [6]: 374.05 ± 1.1 Å²
- collision cross section [7]: 449.01 ± 1.6 Å²

Substance: DAIHFYNKSLAEHR [_DAIHFYNK(hydroxyisobutyryl)SLAEHR_]
- collision cross section [18]: 512.82 ± 2.8 Å²

Substance: LGILPVGRGK [_LGILPVGR(Methyl (R))GK_]
- collision cross section (charge state: 2, modification: Methyl (R)): 355.35 ± 1.4 Å²
- collision cross section [19]: 437.92 Å²

Substance: DKALPLEAEVAPVK [_DK(Dimethyl (K))ALPLEAEVAPVK_]
- collision cross section [3]: 411.93 ± 0.85 Å²
- collision cross section (charge state: 3, modification: Dimethyl (K)): 502.53 ± 1.6 Å²

Substance: DVFISAAER [_DVFIS(HexNAc (ST))AAER_]
- collision cross section [20]: 363.87 Å²

Substance: VGVEVPDVNIEGPEGKLK [_VGVEVPDVNIEGPEGK(Crotonyl)LK_]
- collision cross section [10]: 462.4 ± 1.4 Å²

Substance: HLRGHGPQPPLR [_HLR(Citrullination (R))GHGPQPPLR_]
- collision cross section [13]: 393.67 ± 4.3 Å²
- collision cross section [14]: 482.78 ± 1.8 Å²

Substance: SLKLNTAEDAK [_SLK(Succinyl)LNTAEDAK_]
- collision cross section [12]: 377.2 ± 0.87 Å²

Substance: GPQNATDSYVHK [_GPQNATDSY(Phospho (Y))VHK_]
- collision cross section (charge state: 2, modification: Phospho (Y)): 396.29 ± 0.77 Å²
- collision cross section (charge state: 3, modification: Phospho (Y)): 452.94 ± 1.8 Å²

Substance: SGNLTEDDKHNNAK [_SGNLTEDDK(GlyGly (K))HNNAK_]
- collision cross section [6]: 432.48 ± 1.6 Å²
- collision cross section [7]: 495.64 ± 0.34 Å²

Substance: IINEPTAAAIAYGLDKK [_IINEPTAAAIAYGLDK(Methyl (K))K_]
- collision cross section [21]: 488.76 ± 3.7 Å²
- collision cross section [22]: 550.89 ± 0.34 Å²

Substance: DYSSGFGGKYGVQADR [_DYSSGFGGK(Acetyl (K))YGVQADR_]
- collision cross section [15]: 430.77 ± 2.2 Å²

Substance: ITESVAETAQTIKK [_ITESVAETAQTIK(Gluratylation)K_]
- collision cross section [4]: 429.83 ± 0.97 Å²
- collision cross section [23]: 514.64 ± 1.7 Å²

Substance: KFGVLSDNFK [_K(Crotonyl)FGVLSDNFK_]
- collision cross section [10]: 376.47 ± 0.8 Å²

Substance: LVLPSQAQARLPSGEVVK [_LVLPSQAQAR(Methyl (R))LPSGEVVK_]
- collision cross section [19]: 522.24 ± 0.66 Å²

Substance: SPASDTYIVFGEAK [_SPASDTY(Nitro (Y))IVFGEAK_]
- collision cross section [24]: 402.5 ± 0.55 Å²
- collision cross section [25]: 486.92 Å²

Substance: PSIHGGSGGRGVSVSSAR [_PSIHGGSGGR(Citrullination (R))GVSVSSAR_]
- collision cross section [14]: 486.3 ± 5 Å²

Substance: SGRGGNFGFGDSR [_SGR(Citrullination (R))GGNFGFGDSR_]
- collision cross section [13]: 379.38 ± 0.54 Å²

Substance: DLSTVEALQNLKNLK [_DLSTVEALQNLK(Methyl (K))NLK_]
- collision cross section [21]: 475.78 ± 3.5 Å²
- collision cross section [22]: 545.72 ± 1.2 Å²

Substance: FSPPSSSLQPGK [_FSPPSSS(HexNAc (ST))LQPGK_]
- collision cross section [20]: 396.47 ± 1.2 Å²

Substance: IGAEVYHHLK [_IGAEVY(Nitro (Y))HHLK_]
- collision cross section [24]: 375.15 ± 0.55 Å²
- collision cross section [25]: 440.09 ± 1.8 Å²

Substance: YEEIVKEVSTYIK [_YEEIVK(hydroxyisobutyryl)EVSTYIK_]
- collision cross section [17]: 436.97 ± 5 Å²

Substance: IQQELQTAKK [_IQQELQTAK(Biotin)K_]
- collision cross section (charge state: 2, modification: Biotin): 397.29 ± 2.2 Å²
- collision cross section (charge state: 3, modification: Biotin): 468.38 ± 0.34 Å²

Substance: PASGAGAGAGAGKR [_PASGAGAGAGAGK(GlyGly (K))R_]
- collision cross section [6]: 395.09 ± 1.4 Å²
- collision cross section [7]: 472.77 ± 1.1 Å²

Substance: MTLSVLSR [_MTLS(HexNAc (ST))VLSR_]
- collision cross section [20]: 352.44 ± 0.8 Å²

Substance: KYEEIDNAPEER [_K(Trimethyl (K))YEEIDNAPEER_]
- collision cross section [1]: 405.59 ± 0.61 Å²
- collision cross section [2]: 490.14 ± 2.4 Å²

Substance: LEQVEKELLR [_LEQVEK(Trimethyl (K))ELLR_]
- collision cross section [1]: 387.44 ± 0.62 Å²
- collision cross section [2]: 446.8 ± 1.8 Å²

Substance: IQQELQTAKK [_IQQELQTAK(Succinyl)K_]
- collision cross section [12]: 376.48 ± 0.24 Å²
- collision cross section (charge state: 3, modification: Succinyl): 438.22 Å²

Substance: LQDVSGQLSSSKK [_LQDVSGQLSSSK(Acetyl (K))K_]
- collision cross section [15]: 396.87 ± 1.3 Å²
- collision cross section [16]: 461.64 ± 3.7 Å²

Substance: GRGVGSPEPGPTAPYLGR [_GR(Methyl (R))GVGSPEPGPTAPYLGR_]
- collision cross section [19]: 520.34 ± 0.91 Å²

Substance: LFVGGIKEDTEEHHLR [_LFVGGIK(Gluratylation)EDTEEHHLR_]
- collision cross section [4]: 501.63 ± 1.9 Å²
- collision cross section [23]: 544.37 ± 0.97 Å²
